Experimental data from PMC7736808, “Dual conformational recognition by Z-DNA binding protein is important for the B–Z transition process”.

Columns and labels:
hZαADAR1 = target: T1, hZαADAR1 (human, UniProt P55265); test: MST; 20 mM NaCl; text says 1.8 uM; MST at 22 C, 5 nM labeled DNA, 0.5 mg/ml BSA, 0.05% Tween 20; 5 mM HEPES pH 7.5, 20 mM NaCl (Table 2); 20 mM HEPES pH 8.0, 100 mM NaCl (Table 4); 20 mM Tris-HCl pH 7.8, 150 mM KCl (Table 5); conditions: protein: recombinant; tags: N-terminal His6, cleaved by thrombin; chain copies: 2; label: 5'-Alexa647 on strand 1; blunt
T1 sequence: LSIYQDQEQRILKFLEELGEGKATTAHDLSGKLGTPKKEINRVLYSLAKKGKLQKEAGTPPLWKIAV

GH5* = target: T2, GH5* (UniProt P02259, K41G;S42G;R43G;K53A;R95A); test: MST; 150 mM KCl, pH 7.8; MST at 22 C, 5 nM labeled DNA, 0.5 mg/ml BSA, 0.05% Tween 20; 5 mM HEPES pH 7.5, 20 mM NaCl (Table 2); 20 mM HEPES pH 8.0, 100 mM NaCl (Table 4); 20 mM Tris-HCl pH 7.8, 150 mM KCl (Table 5); conditions: protein: recombinant; label: 5'-Alexa647 on strand 1; blunt
T2 sequence: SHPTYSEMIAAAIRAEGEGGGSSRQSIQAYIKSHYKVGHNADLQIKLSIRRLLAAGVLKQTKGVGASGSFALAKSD

GH5*:α3NADAR1-PW [1] = target: T3, GH5*:α3NADAR1-PW (/ human ADAR1 α3N and β-wing residues, UniProt P02259, K41G;S42G;R43G;K53A;R95A;del65;D66K;L67K;Q68E;K70N;L71R;S72V;I73L;R74Y;R75S;S91P …); test: as above; conditions: protein: recombinant; chain copies: 2; label: 5'-Alexa647 on strand 1; blunt
T3 sequence: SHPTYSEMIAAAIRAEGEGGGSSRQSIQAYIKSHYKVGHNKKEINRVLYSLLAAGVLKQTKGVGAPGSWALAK

vvZαE3L = vvZαE3L (UniProt P21605); test: MST; 20 mM NaCl; text says 20 uM; MST at 22 C, 5 nM labeled DNA, 0.5 mg/ml BSA, 0.05% Tween 20; 5 mM HEPES pH 7.5, 20 mM NaCl (Table 2); 20 mM HEPES pH 8.0, 100 mM NaCl (Table 4); 20 mM Tris-HCl pH 7.8, 150 mM KCl (Table 5); conditions: protein: recombinant; label: 5'-Alexa647 on strand 1; blunt
GH5*:α3NADAR1-PW [2] = target: T3, GH5*:α3NADAR1-PW; test: MST; 100 mM NaCl, pH 8.0; MST at 22 C, 5 nM labeled DNA, 0.5 mg/ml BSA, 0.05% Tween 20; 5 mM HEPES pH 7.5, 20 mM NaCl (Table 2); 20 mM HEPES pH 8.0, 100 mM NaCl (Table 4); 20 mM Tris-HCl pH 7.8, 150 mM KCl (Table 5); conditions: protein: recombinant; chain copies: 2; label: 5'-Alexa647 on strand 1; blunt

B1: B-DNA 21 bp (dsDNA)
DNA 1: TATGCAATCGTAATAAACCGT
DNA 2: ACGGTTTATTACGATTGCATA
Q: B1 was tested. Which Kd (hZαADAR1) did it give?
A: The Kd was 2.7 ± 0.5 µM.

Q: And the Kd (GH5*)?
A: The Kd was 167 ± 50 µM.

Q: And the Kd (GH5*:α3NADAR1-PW [1])?
A: The Kd was 144 ± 16 µM.

Q: What about the Kd (vvZαE3L) of the same binder?
A: The Kd was 21 ± 0.5 µM.

Q: And the Kd (GH5*:α3NADAR1-PW [2])?
A: Its Kd is 31 ± 2 µM.
